T1: YTHDC2 YTH domain WT (Mus musculus, UniProt B2RR83 1353-1436)
T1 sequence: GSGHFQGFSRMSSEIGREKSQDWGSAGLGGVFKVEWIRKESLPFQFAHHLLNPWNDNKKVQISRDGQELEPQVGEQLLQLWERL


Target: T1, YTHDC2 YTH domain WT
Experiment: fluorescence anisotropy

Binder	Kd
CCGGACUGU (ssRNA) [unmodified RNA probe]	54 ± 26 µM
CCGGACUGU (ssRNA, m6A at position 5) [m6A-modified RNA probe]	4.1 ± 1.4 µM

Source: PMC8887132
